The values that follow come from paper doi:10.1101/2021.02.25.432866 (bioRxiv, 2021).

For data set [1], the target named is mutant Huntingtin exon 1 fragment with Q71, unlabelled (Q71). Put plainly: FRET or BRET. On the technique in general: In BRET a luciferase serves as donor, and the signal depends on an acceptor being close.
The data set “FRET or BRET” concerns the molecule itself. Put plainly: FRET or BRET.

mutant Huntingtin exon 1 fragment with Q71, unlabelled (Q71), sequence (P42858 whole entry, change not shown, the tested form may be a part): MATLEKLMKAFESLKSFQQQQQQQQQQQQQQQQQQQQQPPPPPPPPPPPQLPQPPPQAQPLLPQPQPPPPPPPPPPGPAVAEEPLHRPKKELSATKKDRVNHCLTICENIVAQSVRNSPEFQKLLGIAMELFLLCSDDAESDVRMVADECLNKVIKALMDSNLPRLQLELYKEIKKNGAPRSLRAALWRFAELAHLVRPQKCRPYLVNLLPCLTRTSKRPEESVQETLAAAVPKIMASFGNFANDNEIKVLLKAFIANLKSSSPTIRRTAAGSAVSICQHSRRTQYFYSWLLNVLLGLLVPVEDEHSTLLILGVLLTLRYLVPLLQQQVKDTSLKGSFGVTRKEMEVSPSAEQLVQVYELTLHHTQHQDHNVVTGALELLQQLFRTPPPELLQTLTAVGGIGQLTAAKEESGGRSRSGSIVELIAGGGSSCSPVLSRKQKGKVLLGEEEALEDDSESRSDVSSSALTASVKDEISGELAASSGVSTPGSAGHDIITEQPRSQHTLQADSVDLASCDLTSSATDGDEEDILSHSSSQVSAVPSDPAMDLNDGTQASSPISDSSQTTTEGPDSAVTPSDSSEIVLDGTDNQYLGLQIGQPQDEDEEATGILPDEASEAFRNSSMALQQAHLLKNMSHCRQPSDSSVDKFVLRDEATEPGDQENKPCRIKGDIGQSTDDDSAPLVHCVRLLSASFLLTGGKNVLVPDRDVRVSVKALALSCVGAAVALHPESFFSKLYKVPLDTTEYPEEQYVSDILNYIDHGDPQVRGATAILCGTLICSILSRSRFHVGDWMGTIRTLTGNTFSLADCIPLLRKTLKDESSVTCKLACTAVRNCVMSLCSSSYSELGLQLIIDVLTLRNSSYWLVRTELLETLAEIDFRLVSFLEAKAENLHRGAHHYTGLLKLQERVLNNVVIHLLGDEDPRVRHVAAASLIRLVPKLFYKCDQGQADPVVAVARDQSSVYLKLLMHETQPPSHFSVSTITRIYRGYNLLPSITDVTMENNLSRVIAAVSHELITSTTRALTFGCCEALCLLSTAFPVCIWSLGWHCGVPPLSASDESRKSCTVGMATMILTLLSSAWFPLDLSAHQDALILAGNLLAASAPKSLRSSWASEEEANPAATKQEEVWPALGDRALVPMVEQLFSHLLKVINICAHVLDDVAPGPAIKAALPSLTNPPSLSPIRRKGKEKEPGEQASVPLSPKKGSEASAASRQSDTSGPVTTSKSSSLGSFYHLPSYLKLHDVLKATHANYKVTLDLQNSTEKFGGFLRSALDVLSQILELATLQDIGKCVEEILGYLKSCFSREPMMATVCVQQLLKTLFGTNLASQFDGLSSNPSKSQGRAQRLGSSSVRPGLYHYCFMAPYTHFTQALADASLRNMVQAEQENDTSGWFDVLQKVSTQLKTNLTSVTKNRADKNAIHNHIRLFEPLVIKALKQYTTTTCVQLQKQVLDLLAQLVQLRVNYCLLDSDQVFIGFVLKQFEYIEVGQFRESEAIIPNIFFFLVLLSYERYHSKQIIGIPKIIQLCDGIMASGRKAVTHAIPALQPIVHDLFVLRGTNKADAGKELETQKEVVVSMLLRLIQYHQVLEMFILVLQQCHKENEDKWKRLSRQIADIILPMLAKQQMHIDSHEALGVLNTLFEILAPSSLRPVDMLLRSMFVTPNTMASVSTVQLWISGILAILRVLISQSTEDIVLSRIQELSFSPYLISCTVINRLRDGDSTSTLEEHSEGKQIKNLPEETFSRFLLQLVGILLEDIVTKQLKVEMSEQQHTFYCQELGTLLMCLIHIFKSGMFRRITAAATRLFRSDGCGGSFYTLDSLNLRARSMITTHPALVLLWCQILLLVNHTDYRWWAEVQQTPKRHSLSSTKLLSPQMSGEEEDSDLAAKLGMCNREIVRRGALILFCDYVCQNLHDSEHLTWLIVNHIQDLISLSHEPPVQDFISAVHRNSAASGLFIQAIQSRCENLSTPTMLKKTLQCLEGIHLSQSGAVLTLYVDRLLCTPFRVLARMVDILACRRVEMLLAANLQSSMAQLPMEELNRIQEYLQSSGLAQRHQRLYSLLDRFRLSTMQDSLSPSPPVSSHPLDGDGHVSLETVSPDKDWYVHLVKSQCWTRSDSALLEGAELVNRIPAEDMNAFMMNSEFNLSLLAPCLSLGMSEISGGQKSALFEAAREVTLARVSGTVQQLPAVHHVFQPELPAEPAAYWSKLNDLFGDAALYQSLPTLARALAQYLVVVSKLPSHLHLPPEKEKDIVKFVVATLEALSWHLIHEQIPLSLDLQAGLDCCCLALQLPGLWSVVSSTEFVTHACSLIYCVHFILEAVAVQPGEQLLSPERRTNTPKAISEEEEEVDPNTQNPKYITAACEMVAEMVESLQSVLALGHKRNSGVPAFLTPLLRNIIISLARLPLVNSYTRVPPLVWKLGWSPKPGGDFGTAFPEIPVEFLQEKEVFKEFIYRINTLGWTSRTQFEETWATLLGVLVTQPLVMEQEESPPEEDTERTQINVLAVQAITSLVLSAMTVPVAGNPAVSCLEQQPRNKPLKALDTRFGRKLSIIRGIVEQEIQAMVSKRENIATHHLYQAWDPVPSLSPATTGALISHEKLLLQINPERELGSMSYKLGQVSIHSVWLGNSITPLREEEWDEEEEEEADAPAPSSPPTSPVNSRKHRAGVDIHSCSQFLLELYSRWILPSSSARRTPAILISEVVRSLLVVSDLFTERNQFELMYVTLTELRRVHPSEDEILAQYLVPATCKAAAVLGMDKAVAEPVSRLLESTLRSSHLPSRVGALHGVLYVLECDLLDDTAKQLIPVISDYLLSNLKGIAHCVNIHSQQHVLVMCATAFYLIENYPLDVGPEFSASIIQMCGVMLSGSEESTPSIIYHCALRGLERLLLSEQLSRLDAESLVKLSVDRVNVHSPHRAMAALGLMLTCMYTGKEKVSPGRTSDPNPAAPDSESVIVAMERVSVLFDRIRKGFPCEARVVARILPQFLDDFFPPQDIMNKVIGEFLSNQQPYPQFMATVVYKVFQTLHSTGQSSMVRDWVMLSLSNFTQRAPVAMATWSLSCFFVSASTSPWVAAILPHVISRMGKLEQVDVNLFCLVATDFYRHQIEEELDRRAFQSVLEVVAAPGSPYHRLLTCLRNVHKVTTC

Take “DNAJB6b fused to mVenus-mCherry at its N-terminus (VC-DNAJB6) (from UniProt O75190-2 1-241) (natural protein)”: the FRET/donor ratio in aggregates with Q71 in data set [1] was 0.6.

B1: FUS R521C fused to mVenus-mCherry at its N-terminus (VC-FUSR521C) (natural protein)
chain: MASNDYTQQATQSYGAYPTQPGQGYSQQSSQPYGQQSYSGYSQSTDTSGYGQSSYSSYGQSQNTGYGTQSTPQGYGSTGGYGSSQSSQSSYGQQSSYPGYGQQPAPSSTSGSYGSSSQSSSYGQPQSGSYSQQPSYGGQQQSYGQQQSYNPPQGYGQQNQYNSSSGGGGGGGGGGNYGQDQSSMSSGGGSGGGYGNQDQSGGGGSGGYGQQDRGGRGRGGSGGGGGGGGGGYNRSSGGYEPRGRGGGRGGRGGMGGSDRGGFNKFGGPRDQGSRHDSEQDNSDNNTIFVQGLGENVTIESVADYFKQIGIIKTNKKTGQPMINLYTDRETGKLKGEATVSFDDPPSAKAAIDWFDGKEFSGNPIKVSFATRRADFNRGGGNGRGGRGRGGPMGRGGYGGGGSGGGGRGGFPSGGGGGGGQQRAGDWKCPNPTCENMNFSWRNECNQCKAPKPDGPGGGPGGSHMGGNYGDDRRGGRGGYDRGGYRGRGGDRGGFRGGRGGGDRGGFGPGKMDSRGEHRQDCRERPY
In the case of B1, in the data set “FRET or BRET”, the “FRET/donor ratio in foci” value is approximately 0.66.
